Reference: the DeepSol protein solubility set

Assay: soluble on expression in E. coli; label from the status in PepcDB or PDB records
With “MDLDLIQDLPILNFPPAIKIRANTNRDDDGGGCTTPTSSDHKIPPTTATTPPPPPQKPRPPSTPSSLGIRSCKRKLMTSLSKYEIIVNKDEIERFFSSVYNQTMASSTTTAITVAKRRRSFRSCSRR” the “soluble on expression in E. coli” value was “not soluble”. In the case of “MSSGSAGAPALSNNSTNSVAKEKSGNISGDEYLSQEEEVFDGNDIENNETKVYEESLDLDLERSNRQVWLVRLPMFLAEKWRDRNNLHGQELGKIRINKDGSKITLLLNENDNDSIPHEYDLELTKKVVENEYVFTEQNLKKYQQRKKELEADPEKQRQAYLKKQEREEELKKKQQQQKRRNNRKKFNHRVMTDRDGRDRYIPYVKTIPKKTAIVGTVCHECQVMPSMNDPNYHKIVEQRRNIVKLNNKERITTLDETVGVTMSHTGMSMRSDNSNFLKVGREKAKSNIKSIRMPKKEILDYLFKLFDEYDYWSLKGLKERTRQPEAHLKECLDKVATLVKKGPYAFKYTLRPEYKKLKEEERKATLGELADEQTGSAGDNAQGDAEADLEDEIEMEDVV”, the “soluble on expression in E. coli” value is reported as “soluble”. For “GAMGPVDEQWIEILRIQALCARYCLTINTQDGEGWAGCFTEDGAFEFDGWVIRGRPALREYADAHARVVRGRHLTTDLLYEVDGDVATGRSASVVTLATAAGYKILGSGEYQDRLIKQDGQWRIAYRRLRNDRLVSDPSVAVNVADADVAAVVGHLLAAARRLGTQMSDT”, the “soluble on expression in E. coli” value was “soluble”. For “MSLGKFTAVILDFETTGLSPGYGDRAIEIGAVLVRNNRIVDRFQSLMNPGKRVSGFIEEYTGITNEMLAKAPPAEQVMERFASFIAGHNLVAHNASFDRRFLDAELSRIGRRRTGDFACSMLAARRIYTNAPNHRLETLVSHLSLQTDGVFHRALADAEMTAQLWTAMIGELKETYRLRQVTFELMHSLGGVAKKAVPAYLERVAAGREGHHHHHH”, the “soluble on expression in E. coli” value was “not soluble”. In the case of “MGSDKIHHHHHHMTTTNGIDGSYYYENRPKEQSNSGILGKDDFLRILIAQLQYQDPLNPMDDREFIAQMAQFSSLEQMTNMNSAIQQFVKQQTSQTLVQHSELIGKRVTWKRIIDIDEYRQKEELVENTVTSVRLETNGNVSIQLDSGRWISADQLVQVSGKTNHQEEAEGDVGDNAPDEQEG”, the “soluble on expression in E. coli” value is reported as “not soluble”. In the case of “MASFVEMRKLAEAKVQNMIRTIVKPKEQNGNVEPKKEEDEKFESTYKQNENTQITPSSFGKRPLYSKVDINCDKWLMTLDEESRLKIDNPPSLVDGLSKETESELRYLGCELIQQGAILLKLPQTAAATGQILFQRYYYQKSFVRYHFEHAVQACLLLASKIEEEPRRPREVYNVFHRLERLHRLQQSGHDINKRLEAKHGSSILRCFG”, the “soluble on expression in E. coli” value is reported as “not soluble”. For “MSLNKNIKSLNLREKDPFLSREKQRYEHPLPSREWIIELLERKGVPSKIESLARELSITEDEYVFFERRLKAMARDGQVLINRRGAVCAADKLDLVKCRVEAHKDGFGFAVPLTPAKDGDFVLYERQMRGIMHGDIVTVRPAGMDRRGRREGTVLDIVERAQSKVVGRFYMDRGVAILEPEDKRLNQSIVLEPDGVARFKPESGQVIVGEIEVYPEQNRPAVAKIIEVLGDYADSGMEIEIAVRKHHLPHQFSEACAKAAKKIPVHVRKSDLKGRVDLRDLPLVTIDGETARDFDDAVFAEKVGRNYRLVVAIADVSHYVRPDDVIDADAQERSTSVYFPRRVIPMLPENLSNGICSLNPDVERLCMVCDMVVTYAGNIKEYRFYPAVMRSHARLTYNQVWKWISDGIDHPYKAQIDTLYKLFKILQKKRFERGAVEFESVETQMIFDDNGKIEKIVPVVRNDAHKLIEECMLAANVCAADFLLKNKHTALFRNHLGPTPEKLATLREQLGLLGLQLGGGDNPSPKDYAALVEQFKGRPDAELLQVMMLRSMQQAVYEPHCDGHFGLAYEAYAHFTSPIRRYPDLTVHRAIKAVLNQQTYTPKKSWQALGVHTSFCERRADDASRDVENWLKTYYMRDKVGEVFEGKISGMTSFGIFVTLDGIHIDGLVHISDLGEDYFNFRPEIMAIEGERSGIRFNMGDRVAVRVARADLDDGKIDFVLIAGGSGRGRKVKSSASAKPAGTAGKGKPKTAAEKKTARGGKVRGRGASAAAESRKKAKKPVPIKVKKRKGKSEGHHHHHH”, the “soluble on expression in E. coli” value was “not soluble”. In the case of “EGKKIVFISDIHHGPYFERERVADLVRKVNELEPDIIILGGDYVSGDVGYIGACFEELSRLKADMGIFGVTGNHDEWTDYNLTVKCMENAGITVLSNRAEWLEIGDDKIKIAGVDWSTDWYFNSEPYVDPLIKDAEENDFVILVSHTPDLAEELTTDKVDLVLSGHTHGGQITFFGLWAPYVPSFYGQKYRTGIVKTDKTMALVSNGVGNTFLPIRFF”, the “soluble on expression in E. coli” value is reported as “not soluble”. For “MFRRLGEKTTLYRAESPSQNSLASHHNSEVSLPSVDYSQEDRHSCNTLIGDEWSQNGDVIIQPLQKPSNTPTTQYERIITRREIANTESDLCKKLSLIVDLVSDFANDANRLYEGADELLKELRTKIRVYIYFLDVEMADVEKLLRFNVDRSTICDERIDWLLHFTKCHKEMRRVLNELSEEVCEDLESCLEMRAKGVIGKKPSSIILSTLSGMRNGMMTASKLLGCLPRQRA”, the “soluble on expression in E. coli” value was “not soluble”. For “MLIKRLAFAIMTLVIMTSAGCGFKLQRSYQIPEQLNQLSLSSSDEYSELTRLVRERLRLNNVKIVDAANDVPVLRLITDSLERSTLSLYPTGNVAEYELIYFVEFAVALPGKEAQPFKIEIRRDYLDDPRTALAKSREMELLVKEMRIQAADRILQSMASTEVNLEHHHHHH”, the “soluble on expression in E. coli” value was “soluble”. With “MSNSAQRDARNSRDESARASDTDRIQIAQLLAYAAEQGRLQLTDYEDRLARAYAATTYQELDRLRADLPGAAIGPRRGGECNPAPSTLLLALLGGFERRGRWNVPKKLTTFTLWGSGVLDLRYADFTSTEVDIRAYSIMGAQTILLPPEVNVEIHGHRVMGGFDRKVVGEGTRGVPTVRIRGFSLWGDVGIKRKPRKPRK” the “soluble on expression in E. coli” value was “not soluble”. With “GSHMTTSSRYKTELCRTYSESGRCRYGAKCQFAHGLGELRQANRHPKYKTELCHKFKLQGRCPYGSRCHFIHNPTED” the “soluble on expression in E. coli” value was “soluble”. In the case of “MNKPNLENMNPNFPSSPPIDIISPFFPNILVLNSSSSIANAGVTMTAFTAASPNPITKLMLNLFREGNIESESARKPAIVVNAAPSNAFPVSEIASSAASSGDLPLFLSS”, the “soluble on expression in E. coli” value is reported as “soluble”. For “MMQEETFYSVRMRASMNGSHEDGGKHISGGERLIPFHEMKHTVNALLEKGLSHSRGKPDFMQIQFEEVHESIKTIQPLPVHTNEVSCPEEGQKLARLLLEKEGVSRDVIEKAYEQIPEWSDVRGAVLFDIHTGKRMDQTKEKGVRVSRMDWPDANFEKWALHSHVPAHSRIKEALALASKVSRHPAVVAELCWSDDPDYITGYVAGKKMGYQRITAMKEYGTEEGCRVFFIDGSNDVNTYIHDLEKQPILIEWEEDHDS”, the “soluble on expression in E. coli” value was “not soluble”. With “MGSDKIHHHHHHMKLDPTSPSLNIMLANPRGFCAGVDRAISIVERALELFSPPIYVRHEVVHNRYVVQNLKDRGAVFVEELDQVPDNNIVIFSAHGVSQAVRQEAKARGLRVFDATCPLVTKVHLQVTRASRKGIECILIGHEGHPEVEGTMGQYDNPNGGVYLIESPADVDALEVRDPNNLCFVTQTTLSVDDTLDIIAALQKRFPSIEGPRKDDICYATQNRQDAVRNLSADVDLLIVVGSKNSSNSNRLRELALKTGTQSYLVDTADDVESSWFDNVSRVAVTAGASAPEVLVQQVVQAIAKLAPSVVTEVEGRKEDTVFAVPAELR” the “soluble on expression in E. coli” value was “not soluble”. For “MGSDKIHHHHHHMKVVIVGNGPGGVELAKQLSEEHEVTIVERETVPYYTKPMLSHYVAGLAEEKSLFPYPIDWYEKKGIKLLLGTTAKRIDAEKKVLETDRGTLEYDVLVLATGAKPRTLKIPGWERMYTLRTIEDAKRLKGAVEREKDLLIIGGGFIGLEIAGNLSKQGIKVKVVEKMTRLMGLDEELTERIKGELEKHGVEFYLGRDVERIENDVLVTDKEEIPARVILCSIGIVPEVSLAKESGLDVNRGILVDKTFRTSKPDIYAIGDCAEHEGIICGTAKAAMAHAKVLANTLKGIPDEYDFHFRSSYFKFGDFPIAIVGELTDRGEWIDSETKSFYRDEKIVGVVVLSDVRKAREWEERLRSTR”, the “soluble on expression in E. coli” value was “not soluble”. In the case of “MENCPLVSVIVCAYNAEQYIDESISSIINQTYENLEIIVINDGSTDLTLSHLEEISKLDKRIKIISNKYNLGFINSLNIGLGCFSGKYFARMDADDIAKPSWIEKIVTYLEKNDHITAMGSYLEIIVEKECGIIGSQYKTGDIWKNPLLHNDICEAMLFYNPIHNNTMIMRANVYREHKLIFNKDYPYAEDYKFWSEVSRLGCLANYPEALVKYRLHGNQTSSVYNHEQNETAKKIKRENITYYLNKIGIDIKVINSVSLLEIYHVDKSNKVLKSILYEMYMSLDKYTITSLLHFIKYHLELFDLKQNLKIIKKFIRKINVIF”, the “soluble on expression in E. coli” value is reported as “not soluble”.
